We go through two substances from patent US5763209.

Common to all, as to experiment: cell_activity
In data set [1] the test system is GAL4(1-147)-Egr-1(420-533) (Saccharomyces cerevisiae / Mus musculus). As to conditions: GAL4-site-dependent activation.
For data set [2], the system named is GAL4(1-147)-Egr-1(3-281) (Saccharomyces cerevisiae / Mus musculus). The following applies: GAL4-site-dependent activation; text says amino acids 1-281.
The subject of data set [3] is GAL4(1-147)-Egr-1(281-314) (Saccharomyces cerevisiae / Mus musculus). As to conditions: 1 µg effector plasmid.
Data set [4] concerns GAL4(1-147)-Egr-1(240-330) (Saccharomyces cerevisiae / Mus musculus). The following applies: GAL4-site-dependent.

As to “GAL4 reporter, five GAL4 sites with E1b minimal promoter”, the activity in data set [1] amounted to 5 fold; in data set [2] it was 100 fold.

For GAL4 5 tkCAT reporter plasmid, the values for the activity (fold repression) in data set [3] and in data set [4] were more than 5 and 10, respectively.
